# Data from patent US20260116984A1 (ENTHERA S R L, published 2026).
# Residue numbers refer to the chain shown, from its start.
# T1: Human Ecto-TMEM219 (human, UniProt Q86XT9 43-204)
# T1 construct: also called hEcto-TMEM
# T1 sequence: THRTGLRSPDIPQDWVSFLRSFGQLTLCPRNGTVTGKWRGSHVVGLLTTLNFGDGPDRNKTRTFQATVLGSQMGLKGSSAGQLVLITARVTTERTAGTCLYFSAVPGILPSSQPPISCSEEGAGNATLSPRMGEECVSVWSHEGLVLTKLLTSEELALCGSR
# T2: Murine Ecto-TMEM219 (murine, UniProt Q9D123 43-203)
# T2 construct: also called mEcto-TMEM
# T2 sequence: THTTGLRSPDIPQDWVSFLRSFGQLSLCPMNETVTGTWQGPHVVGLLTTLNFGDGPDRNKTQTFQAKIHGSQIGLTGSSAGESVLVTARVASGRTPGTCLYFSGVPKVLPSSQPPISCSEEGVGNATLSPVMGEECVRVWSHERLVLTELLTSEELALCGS
# B1: TC05 (antibody, human IgG4, V domains shown)
# VH: QIQLVQSGAEVKQPGASVSVSCAASGYTFTSYGISWVRQAPGQGLEWMGWISAYNGNTNYAQKLQGRVTMTTDTSTSTAYMELSSLRSDDTAVYYCARWGRWLAHDYWGQGTLVTVSS
# VL: QAVLTQPPSVSVSPGQTASITCSGDKLGNKNAYWYQQKPGQSPVLVMYQSTRRPSGIPERFSASNSGNTATLTISGTQAMDEADYYCQAWDSSSGWEVFGGGTKLTVL
# B2: TC04 (antibody, human IgG4, V domains shown)
# VH: B1 VH
# VL: B1 VL with M80E
# B3: TC03 (antibody, human IgG4, V domains shown)
# VH: B1 VH
# VL: B1 VL with D91L
# B4: TC01 (antibody, V domains shown)
# VH: B1 VH with Q13K, S19K, A23K, S84R
# VL: B1 VL
# notes: also called anti-TMEM219 TC01; TCO1
# B5: TE10 (antibody, V domains shown)
# VH: QVQLVESGGGVVQPGRSLRLSCAASGFTFSSYGMHWVRQAPGKGLEWVAVIWYDGSNKYYADSVKGRFTISRDNSKNTLYLQMNSLRAEDTAVYYCAREGRGMDVWGQGTTVTVSS
# VL: QPVLTQSSSASASLGSSVKLTCTLSSGHSSYIIAWHQQQPGKAPRYLMKLEGSGSYNKGSGVPDRFSGSSSGADRYLTISNLQFEDEADYYCETWDSNTPHAVFGGGTQLTAL
# B6: TM1 (antibody, V domains shown)
# VH: QVQLVESGGGVVQPGRSLRLSCAASGFTFSTYGIHWVRQAPGKGLEWVAVIWYDGYNKYYVDSVKGRFTISRDNSENTVYLQMNSLRTEDTAVYYCAREGWFGKLLSALDIWGQGTMVTVSS
# VL: VIQMTQSPSSLSASVGDRVTITCRASQGIRNDLGWYLQKPGKAPELLIYPASSLQSGVPSRFSGSGSGTDFTLTISSLQPEDFATYYCLQDYNYPFTFGQGTKLEIK
# notes: constant regions are not tied to it; also called anti-TMEM219 TM1
# What was measured:
# [1] = target: TMEM219 on human beta cells (Betalox-5) and human islets (human) (UniProt Q86XT9); experiment: cell-based or functional assay
# TMEM219 on human beta cells (Betalox-5) and human islets (human), sequence (Q86XT9 39-240): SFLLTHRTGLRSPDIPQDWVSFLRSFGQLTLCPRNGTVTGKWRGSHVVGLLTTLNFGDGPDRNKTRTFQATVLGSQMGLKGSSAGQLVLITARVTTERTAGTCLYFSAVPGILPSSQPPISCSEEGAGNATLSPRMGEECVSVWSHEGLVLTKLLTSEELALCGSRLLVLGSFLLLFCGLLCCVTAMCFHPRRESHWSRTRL
# [2] = target: T1, Human Ecto-TMEM219; experiment: ELISA, ectoTMEM coated at 5 µg/ml, antibody dilution series, anti-human-Fc HRP detection
# Protocol: The binding activity of the purified IgG4 (TC03, TC04, TC05) to the recombinant ectoTMEM protein was measured by ELISA. In brief, ectoTMEM was diluted in PBS to 5 μg/ml and coated onto 96-well ELISA plates (100 μl/well) for 1 h at RT. After blocking and washing of the plates, an antibody dilution series was added to the plates and incubated for 1 h at RT. After washing of the plates, bound antibodies were detected via a secondary anti-human-Fc HRP-conjugated antibody. After another washing step, TMB reaction was performed, stopped with sulfuric acid and absorbance was measured. Based on the absorbance readings, an EC50 of the saturating antibodies was calculated.
# [3] = target: T2, Murine Ecto-TMEM219; experiment: Octet BLI, antibody captured via Fc on biosensor, antigen at 150 nM
# Protocol: (§1) The binding affinity measurements were performed using an Octet instrument (Octet BMIA), which is a Biolayer Interferometry (BLI) platform based on Biomolecular Interaction Analysis. To establish the assay, the target monoclonal antibody (30 μg/ml in PBS) was immobilized via Fc on the Anti-Mouse IgG Fc Capture (AMC) or Anti-Human IgG Fc Capture (AMC) biosensors and the interaction with the antigen, human and murine Ecto-TMEM219 (Genescript's customized protein service) at 150 nM was measured.
# [4] = target: T1, Human Ecto-TMEM219; experiment: as above
# Protocol: as §1
Molecule,EC50 [2] [µg/mL],Kd [4] [nM],further results
Recombinant human IGFBP3 (from UniProt P17936 28-291) (ligand),–,–,CASP8 mRNA upregulation in beta cells cultured with IGFBP3 [1]: 70%; cell death of beta cells challenged with IGFBP3 [1]: 30%
B1,0.0791,–,–
B2,0.0898,–,–
B3,0.0647,–,–
B4,–,20,Kd [3]: 30 nM
B5,–,< 0.001,–
B6,–,< 0.001,Kd [3]: < 0.001 nM
